For orientation: Kd means the constant that tells how readily two partners part at equilibrium.

The target of one experiment is HLA-A*68:02. Description: IEDB peptide-MHC binding, purified MHC/competitive/radioactivity; filed as Kd, often an IC50 or EC50 that approximates it; ≥ and ≤ were set here for values at or beyond the usual limits of such assays. The settings on record: source organism: Plasmodium falciparum.
With ILSVSSFLFV, the Kd was found to be 2100 nM.

Another experiment has as its target HLA-A*03:01. The description is as above. The settings on record: source organism: Plasmodium falciparum.
In the case of VTCGNGIQVR, the Kd amounted to 6880 nM.
Same read-out and setting: the value for RINEEKHEK was 786 nM.
As to KSLYDEHIKK, the equilibrium dissociation constant (Kd) is 1000 nM.
In the case of KSLYDEHIK, the Kd is at least 10000 nM.
Still for that read-out and setting: for FILVNLLIFH the value was 733 nM; for HVLSHNSYEK, 407 nM; for GVSENIFLK, 151 nM.
Consider VLYNTEKGR, for which the Kd was 282 nM.
In the case of KILSVFFLA, the Kd was found to be 18 nM.
Consider GTGSGVSSK, for which the Kd is 126 nM.
In the case of SLYDEHIKK, the Kd came out at 28 nM.
With VLSHNSYEK, the Kd came out at 79 nM.
Regarding FLKENKLNK, the Kd stood at 145 nM.
Consider GTGSGVSSKK, for which the Kd was found to be 1100 nM.

The experiment is the same for the next values; noted with them: source organism: Plasmodium falciparum 3D7.
Regarding SLLSTNLPY, the Kd was 1150 nM.
For the sequence ALLACAGLAY, the Kd was found to be 355 nM.
Turning to RLHSDASKNK, the Kd is 256 nM.
On the same count and under the same terms, for IIRLHSDASK the value was 324 nM.

A further experiment concerns the target HLA-A*02:02. The experiment is described as above. The settings on record: source organism: Plasmodium falciparum.
As for ILSVSSFLFV, the Kd came out at 3580 nM.
In the case of VLLGGVGLVL, the Kd was at least 10000 nM.

The target of a further experiment is HLA-B*54:01. Described as above. The settings on record: source organism: Plasmodium falciparum 3D7.
Regarding TPYAGEPAPF, the Kd is at least 10000 nM.
Take HPSDGKCNL: the Kd is at least 10000 nM.

In a further experiment the target is HLA-A*33:01. Described as above. The settings on record: source organism: Plasmodium falciparum.
Take RINEEKHEK: the Kd is at least 10000 nM.
Take KSLYDEHIKK: the Kd is at least 10000 nM.
As to KSLYDEHIK, the Kd is at least 10000 nM.
For FILVNLLIFH, the Kd worked out at 397 nM.
Turning to HVLSHNSYEK, the Kd was at least 10000 nM.
Still for that read-out and setting: for GVSENIFLK the value was 8290 nM; for KILSVFFLA, 5920 nM; for GTGSGVSSK, at least 10000 nM.
With SLYDEHIKK, the Kd was at least 10000 nM.
For the sequence VLSHNSYEK, the Kd was at least 10000 nM.
For FLKENKLNK, the Kd was 2640 nM.
For GTGSGVSSKK, the dissociation constant Kd was at least 10000 nM.

Still in this experiment, the particulars now being: source organism: Plasmodium falciparum 3D7.
In the case of SLLSTNLPY, the Kd is at least 10000 nM.
Consider LLACAGLAY, for which the Kd came out at 6590 nM.
ALLACAGLAY: the Kd amounted to 5090 nM.
As for RLHSDASKNK, the Kd is at least 10000 nM.
As for IIRLHSDASK, the Kd was at least 10000 nM.

The next experiment deals with HLA-B*53:01. The description is as above. The settings on record: source organism: Plasmodium falciparum 3D7.
TPYAGEPAPF: the Kd turned out to be 158 nM.
For HPSDGKCNL, the Kd is 3320 nM.

The next experiment addresses HLA-B*51:01. The experiment is described as above. The settings on record: source organism: Plasmodium falciparum 3D7.
In the case of TPYAGEPAPF, the dissociation constant Kd stood at 15 nM.
As for HPSDGKCNL, the Kd is at least 10000 nM.

The target in another experiment is HLA-A*02:03. The description is as above. The settings on record: source organism: Plasmodium falciparum.
As to ILSVSSFLFV, the Kd is 19 nM.

The next experiment concerns the target HLA-B*07:02. The experiment is described as above. The settings on record: source organism: Plasmodium falciparum 3D7.
For the sequence HPSDGKCNL, the Kd is 275 nM.

A further experiment concerns the target HLA-A*02:06. Described as above. The settings on record: source organism: Plasmodium falciparum.
For the sequence ILSVSSFLFV, the Kd was 587 nM.
With KILSVFFLA, the Kd is 8 nM.

A further experiment deals with HLA-A*02:01. The description is as above. The settings on record: source organism: Plasmodium falciparum.
As for GLIMVLSFL, the Kd is 22 nM.

The same experiment, now with this note: source organism: Plasmodium falciparum 3D7.
As to FLIFFDLFLV, the Kd is 12 nM.

Another experiment deals with HLA-B*35:01. The description is as above. The settings on record: source organism: Plasmodium falciparum 3D7.
Turning to HPSDGKCNL, the Kd was at least 10000 nM.

The next experiment addresses HLA-A*68:01. The description is as above. The settings on record: source organism: Plasmodium falciparum.
As to VTCGNGIQVR, the Kd came to 444 nM.
With RINEEKHEK, the Kd was at least 10000 nM.
Turning to KSLYDEHIKK, the Kd is at least 10000 nM.
As to KSLYDEHIK, the Kd is at least 10000 nM.
Regarding GVSENIFLK, the Kd worked out at 10 nM.
As for VLYNTEKGR, the Kd stood at 1230 nM.
Same read-out and setting: the value for KILSVFFLA was 8890 nM; that for GTGSGVSSK was 3480 nM.
Take SLYDEHIKK: the Kd was found to be 615 nM.
For VLSHNSYEK, the Kd is 2860 nM.
Consider FLKENKLNK, for which the Kd worked out at 444 nM.
Regarding GTGSGVSSKK, the Kd was at least 10000 nM.

The same experiment, now with this note: source organism: Plasmodium falciparum 3D7.
SLLSTNLPY: the Kd was at least 10000 nM.
For the sequence LLACAGLAY, the Kd was 2500 nM.
As to ALLACAGLAY, the Kd was at least 10000 nM.
Take RLHSDASKNK: the dissociation constant Kd was at least 10000 nM.
The same measure, in the same setting: for IIRLHSDASK the value was at least 10000 nM.

A further experiment addresses HLA-A*31:01. Described as above. The settings on record: source organism: Plasmodium falciparum.
As to VTCGNGIQVR, the dissociation constant (Kd) stood at 15 nM.
With RINEEKHEK, the Kd was determined as 486 nM.
As for KSLYDEHIKK, the Kd was at least 10000 nM.
As for KSLYDEHIK, the Kd is at least 10000 nM.
For FILVNLLIFH, the Kd worked out at 1960 nM.
With HVLSHNSYEK, the Kd was at least 10000 nM.
Take GVSENIFLK: the Kd was determined as 2250 nM.
As for VLYNTEKGR, the Kd worked out at 8570 nM.
Turning to KILSVFFLA, the Kd stood at 7830 nM.
GTGSGVSSK: the Kd is at least 10000 nM.
For SLYDEHIKK, the Kd was at least 10000 nM.
Same read-out and setting: the value for VLSHNSYEK was at least 10000 nM; that for FLKENKLNK was at least 10000 nM.
With GTGSGVSSKK, the Kd was at least 10000 nM.

The experiment is the same for the next values; noted with them: source organism: Plasmodium falciparum 3D7.
As to SLLSTNLPY, the dissociation constant Kd is at least 10000 nM.
Turning to LLACAGLAY, the Kd is at least 10000 nM.
Still for that read-out and setting: the value for ALLACAGLAY was 5460 nM; that for RLHSDASKNK was at least 10000 nM.
Consider IIRLHSDASK, for which the Kd is at least 10000 nM.

For another experiment, the target named is HLA-A*11:01. The description is as above. The settings on record: source organism: Plasmodium falciparum.
For the sequence VTCGNGIQVR, the Kd stood at 11 nM.
Still for that read-out and setting: the value for RINEEKHEK was 40 nM; that for KSLYDEHIKK was 29 nM; that for KSLYDEHIK was 231 nM.
On to FILVNLLIFH, for which the Kd amounted to 1330 nM.
As to HVLSHNSYEK, the Kd amounted to 200 nM.
Consider GVSENIFLK, for which the Kd came to 5 nM.
On to VLYNTEKGR, for which the Kd was 3160 nM.
Still for that read-out and setting: the value for KILSVFFLA was 3.2 nM; that for GTGSGVSSK was 40 nM.
In the case of SLYDEHIKK, the Kd came out at 8.6 nM.
Consider VLSHNSYEK, for which the Kd came to 19 nM.
Turning to FLKENKLNK, the Kd was found to be 3750 nM.
With GTGSGVSSKK, the Kd amounted to 353 nM.

Still in this experiment, the particulars now being: source organism: Plasmodium falciparum 3D7.
In the case of SLLSTNLPY, the Kd stood at 353 nM.
Consider RLHSDASKNK, for which the Kd was 600 nM.
Take IIRLHSDASK: the Kd was at least 10000 nM.

The record behind these values is the Immune Epitope Database (IEDB).
